Results from paper doi:10.1101/2023.05.30.542914 (bioRxiv, 2023).

T1: COPB2_(1-304), N-terminal WD-repeat domain of the COPB2 coatomer subunit (S. cerevisiae, UniProt P41811 1-304)
T1 sequence: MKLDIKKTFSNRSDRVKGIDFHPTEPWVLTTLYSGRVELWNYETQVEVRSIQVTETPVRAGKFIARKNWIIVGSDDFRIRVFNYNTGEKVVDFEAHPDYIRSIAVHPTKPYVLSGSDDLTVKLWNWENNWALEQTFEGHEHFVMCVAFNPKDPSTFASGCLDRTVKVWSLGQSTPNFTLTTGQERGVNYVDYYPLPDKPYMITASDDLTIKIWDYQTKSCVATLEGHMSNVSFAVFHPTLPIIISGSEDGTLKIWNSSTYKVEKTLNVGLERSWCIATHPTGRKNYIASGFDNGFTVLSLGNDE


Target: T1, COPB2_(1-304), N-terminal WD-repeat …
Assay: ITC

Binder | Kd
PVRASRNKRPTFLKIKKP [Exosome Binding Peptide (EBP) of Wnt7a, 18 aa polypeptide (240-257)] | 11.6 µM
LKIKKP [Wnt_(252-257) peptide (LKIKKP), C-terminal half of the EBP] | 37.2 µM
